For this data set the following is noted: Pseudomonas aeruginosa (strain ATCC 15692 / DSM 22644 / CIP 104116 / JCM 14847 / LMG 12228 / 1C / PRS 101 / PAO1); pH 7.03; 20 °C; Thermal; DSC; phosphate buffer 10 mM; sodium chloride 40 microM; reversible: no; whole UniProt chain shown.

The values below come from FireProtDB (doi:10.1016/s0006-3495(99)76955-9).

B1: Azurin wild type, P00282 (protein)
chain: MLRKLAAVSLLSLLSAPLLAAECSVDIQGNDQMQFNTNAITVDKSCKQFTVNLSHPGNLPKNVMGHNWVLSTAADMQGVVTDGMASGLDKDYLKPDDSRVIAHTKLIGSGEKDSVTFDVSKLKEGEQYMFFCTFPGHSALMKGTLTLK
As to B1, the “unfolding enthalpy (calorimetric)” value stood at 61 kJ/mol and the unfolding free energy is 59.7 kJ/mol.
